Among the data in patent US20050203022A1 are [3H] thymidine incorporation (CPM) of CCL64 mink lung cells with 0.1 ng/ml TGFβ1, control IgG, [3H] thymidine incorporation (CPM) of CCL64 mink lung cells with 0.1 ng/ml TGFβ1, TGFβRII:Fc and amount required to inhibit the anti-proliferative effect of 0.1 ng/ml TGFβ1 by 50% values, retold here.

This experiment addresses TGFβ1 (UniProt P01137). The experiment is described as follows: cell-based or functional assay.
Chain of UniProt P01137 (P01137 279-390 limits assumed): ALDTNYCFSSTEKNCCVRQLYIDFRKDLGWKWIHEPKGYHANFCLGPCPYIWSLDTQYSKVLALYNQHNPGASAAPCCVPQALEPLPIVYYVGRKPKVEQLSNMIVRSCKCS

The substance control IgG (antibody) showed a [3H] thymidine incorporation (CPM) of CCL64 mink lung cells with 0.1 ng/ml TGFβ1, control IgG at 0.02 µg/ml of 43000 CPM; a [3H] thymidine incorporation (CPM) of CCL64 mink lung cells with 0.1 ng/ml TGFβ1, control IgG at 0.04 µg/ml of 54400 CPM; a [3H] thymidine incorporation (CPM) of CCL64 mink lung cells with 0.1 ng/ml TGFβ1, control IgG at 0.08 µg/ml of 61900 CPM; a [3H] thymidine incorporation (CPM) of CCL64 mink lung cells with 0.1 ng/ml TGFβ1, control IgG at 0.16 µg/ml of 52800 CPM. This substance showed a [3H] thymidine incorporation (CPM) of CCL64 mink lung cells with 0.1 ng/ml TGFβ1, control IgG at 0.31 µg/ml of 52400 CPM; a [3H] thymidine incorporation (CPM) of CCL64 mink lung cells with 0.1 ng/ml TGFβ1, control IgG at 0.62 µg/ml of 56700 CPM; a [3H] thymidine incorporation (CPM) of CCL64 mink lung cells with 0.1 ng/ml TGFβ1, control IgG at 1.25 µg/ml of 51400 CPM; a [3H] thymidine incorporation (CPM) of CCL64 mink lung cells with 0.1 ng/ml TGFβ1, control IgG at 2.5 µg/ml of 54400 CPM. For the same substance, the [3H] thymidine incorporation (CPM) of CCL64 mink lung cells with 0.1 ng/ml TGFβ1, control IgG at 5 µg/ml was determined as 55100 CPM and the [3H] thymidine incorporation (CPM) of CCL64 mink lung cells with 0.1 ng/ml TGFβ1, control IgG at 10 µg/ml came out at 53600 CPM.

For “recombinant rabbit TGFβRII:Fc fusion protein”, the [3H] thymidine incorporation (CPM) of CCL64 mink lung cells with 0.1 ng/ml TGFβ1, TGFβRII:Fc at 0.02 µg/ml stood at 57700 CPM; the [3H] thymidine incorporation (CPM) of CCL64 mink lung cells with 0.1 ng/ml TGFβ1, TGFβRII:Fc at 0.04 µg/ml is 49900 CPM; the [3H] thymidine incorporation (CPM) of CCL64 mink lung cells with 0.1 ng/ml TGFβ1, TGFβRII:Fc at 0.08 µg/ml worked out at 63800 CPM; the [3H] thymidine incorporation (CPM) of CCL64 mink lung cells with 0.1 ng/ml TGFβ1, TGFβRII:Fc at 0.16 µg/ml amounted to 75100 CPM. For the same substance, the [3H] thymidine incorporation (CPM) of CCL64 mink lung cells with 0.1 ng/ml TGFβ1, TGFβRII:Fc at 0.31 µg/ml stood at 119000 CPM; the [3H] thymidine incorporation (CPM) of CCL64 mink lung cells with 0.1 ng/ml TGFβ1, TGFβRII:Fc at 0.62 µg/ml turned out to be 150000 CPM; the [3H] thymidine incorporation (CPM) of CCL64 mink lung cells with 0.1 ng/ml TGFβ1, TGFβRII:Fc at 1.25 µg/ml worked out at 168000 CPM; the [3H] thymidine incorporation (CPM) of CCL64 mink lung cells with 0.1 ng/ml TGFβ1, TGFβRII:Fc at 2.5 µg/ml came to 179000 CPM. The substance also had a [3H] thymidine incorporation (CPM) of CCL64 mink lung cells with 0.1 ng/ml TGFβ1, TGFβRII:Fc at 5 µg/ml of 179000 CPM; a [3H] thymidine incorporation (CPM) of CCL64 mink lung cells with 0.1 ng/ml TGFβ1, TGFβRII:Fc at 10 µg/ml of 182000 CPM; an amount required to inhibit the anti-proliferative effect of 0.1 ng/ml TGFβ1 by 50% of 0.5 µg/mL.
